Drawing on patent publication US20210009686A1 (published 2021), this text covers EC50 for one molecule.

This assay has as its target CLDN18.2. Briefly: FACS binding, KATO III cells.

B1: IMAB362 (antibody, V domains shown)
VH: QVQLQQPGAELVRPGASVKLSCKASGYTFTSYWINWVKQRPGQGLEWIGNIYPSDSYTNYNQKFKDKATLTVDKSSSTAYMQLSSPTSEDSAVYYCTRSWRGNSFDYWGQGTTLTVSS
VL: DIVMTQSPSSLTVTAGEKVTMSCKSSQSLLNSGNQKNYLTWYQQKPGQPPKLLIYWASTRESGVPDRFTGSGSGTDFTLTISSVQAEDLAVYYCQNDYSYPFTFGSGTKLEIKR
In turn, B1 registered an EC50 of 0.67 µg/mL.
